# Source: publication PMC10786891, “Massively parallel profiling of RNA-targeting CRISPR-Cas13d”
# T1: EsCas13d, nuclease-dead (Eubacterium siraeum, UniProt B0MS50, R295A;H300A;R849A;H854A)
# T1 sequence: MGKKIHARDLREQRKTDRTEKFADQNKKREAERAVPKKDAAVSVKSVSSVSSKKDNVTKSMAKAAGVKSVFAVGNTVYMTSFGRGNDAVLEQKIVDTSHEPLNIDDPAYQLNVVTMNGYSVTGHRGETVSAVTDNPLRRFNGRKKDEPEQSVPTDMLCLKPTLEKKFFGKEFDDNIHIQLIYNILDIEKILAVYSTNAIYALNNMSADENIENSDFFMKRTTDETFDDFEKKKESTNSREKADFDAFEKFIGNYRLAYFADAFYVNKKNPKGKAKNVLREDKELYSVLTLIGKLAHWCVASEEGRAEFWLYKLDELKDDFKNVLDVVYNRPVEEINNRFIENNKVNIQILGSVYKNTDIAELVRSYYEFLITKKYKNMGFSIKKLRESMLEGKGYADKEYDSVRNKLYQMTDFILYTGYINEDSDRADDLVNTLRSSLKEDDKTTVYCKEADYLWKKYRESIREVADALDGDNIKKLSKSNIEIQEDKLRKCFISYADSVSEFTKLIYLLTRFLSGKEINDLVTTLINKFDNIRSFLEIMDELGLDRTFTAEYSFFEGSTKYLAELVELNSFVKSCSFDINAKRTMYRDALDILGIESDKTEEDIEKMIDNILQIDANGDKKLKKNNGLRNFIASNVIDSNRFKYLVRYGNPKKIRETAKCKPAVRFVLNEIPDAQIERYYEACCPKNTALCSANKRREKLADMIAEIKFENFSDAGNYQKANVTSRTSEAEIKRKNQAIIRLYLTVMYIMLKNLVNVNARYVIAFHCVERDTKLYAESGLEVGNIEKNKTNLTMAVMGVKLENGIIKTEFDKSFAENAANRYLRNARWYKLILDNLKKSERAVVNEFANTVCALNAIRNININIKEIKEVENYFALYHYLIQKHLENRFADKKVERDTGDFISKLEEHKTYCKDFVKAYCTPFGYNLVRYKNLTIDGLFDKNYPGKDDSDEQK
# B1: target 1 G5C,A16C (mixed)
# RNA 1: CACCCGUGCAAAAAUGCAGGGGUCUAAAACUGAGCGGAUAACCUCUCUAUGG
# RNA 2: GGGAAUGGAUCCACAUCUACGAAUUCGUACCAUAGCGAGGUUAUCCCCUCACCGAGAUCGGAAGAGCACACGU
# B2: target 1 insC 3' of 10,insG 3' of 7 (mixed)
# RNA 1: CACCCGUGCAAAAAUGCAGGGGUCUAAAACUGAGCGGAUAACCUCUCUAUGG
# RNA 2: GGGAAUGGAUCCACAUCUACGAAUUCGUACCAUAGAGAGGUUCAUCGCGCUCACCGAGAUCGGAAGAGCACACGU
# B3: target 1 U3A,C6G (mixed)
# RNA 1: CACCCGUGCAAAAAUGCAGGGGUCUAAAACUGAGCGGAUAACCUCUCUAUGG
# RNA 2: GGGAAUGGAUCCACAUCUACGAAUUCGUACCAUAGAGAGGUUAUCGGCACACCGAGAUCGGAAGAGCACACGU
# B4: target 1 insU 3' of 14 (mixed)
# RNA 1: CACCCGUGCAAAAAUGCAGGGGUCUAAAACUGAGCGGAUAACCUCUCUAUGG
# RNA 2: GGGAAUGGAUCCACAUCUACGAAUUCGUACCAUAGAGAUGGUUAUCCGCUCACCGAGAUCGGAAGAGCACACGU
# B5: target 1 insG 3' of 22,insU 3' of 21 (mixed)
# RNA 1: CACCCGUGCAAAAAUGCAGGGGUCUAAAACUGAGCGGAUAACCUCUCUAUGG
# RNA 2: GGGAAUGGAUCCACAUCUACGAAUUCGUACGCUAUAGAGAGGUUAUCCGCUCACCGAGAUCGGAAGAGCACACGU
# B6: target 1 C2U,G13U (mixed)
# RNA 1: CACCCGUGCAAAAAUGCAGGGGUCUAAAACUGAGCGGAUAACCUCUCUAUGG
# RNA 2: GGGAAUGGAUCCACAUCUACGAAUUCGUACCAUAGAGAUGUUAUCCGCUUACCGAGAUCGGAAGAGCACACGU
# B7: target 1 insC 3' of 19,insG 3' of 7 (mixed)
# RNA 1: CACCCGUGCAAAAAUGCAGGGGUCUAAAACUGAGCGGAUAACCUCUCUAUGG
# RNA 2: GGGAAUGGAUCCACAUCUACGAAUUCGUACCAUCAGAGAGGUUAUCGCGCUCACCGAGAUCGGAAGAGCACACGU
# B8: target 1 C2A,G5A (mixed)
# RNA 1: CACCCGUGCAAAAAUGCAGGGGUCUAAAACUGAGCGGAUAACCUCUCUAUGG
# RNA 2: GGGAAUGGAUCCACAUCUACGAAUUCGUACCAUAGAGAGGUUAUCCACUAACCGAGAUCGGAAGAGCACACGU
# B9: target 1 insU 3' of 21,insU 3' of 1 (mixed)
# RNA 1: CACCCGUGCAAAAAUGCAGGGGUCUAAAACUGAGCGGAUAACCUCUCUAUGG
# RNA 2: GGGAAUGGAUCCACAUCUACGAAUUCGUACCUAUAGAGAGGUUAUCCGCUCAUCCGAGAUCGGAAGAGCACACGU
# B10: target 1 insA 3' of 19,insC 3' of 14 (mixed)
# RNA 1: CACCCGUGCAAAAAUGCAGGGGUCUAAAACUGAGCGGAUAACCUCUCUAUGG
# RNA 2: GGGAAUGGAUCCACAUCUACGAAUUCGUACCAUAAGAGACGGUUAUCCGCUCACCGAGAUCGGAAGAGCACACGU
# B11: target 1 insC 3' of 20,insU 3' of 17 (mixed)
# RNA 1: CACCCGUGCAAAAAUGCAGGGGUCUAAAACUGAGCGGAUAACCUCUCUAUGG
# RNA 2: GGGAAUGGAUCCACAUCUACGAAUUCGUACCACUAGUAGAGGUUAUCCGCUCACCGAGAUCGGAAGAGCACACGU
# B12: target 1 complement block 7-13 (mixed)
# RNA 1: CACCCGUGCAAAAAUGCAGGGGUCUAAAACUGAGCGGAUAACCUCUCUAUGG
# RNA 2: GGGAAUGGAUCCACAUCUACGAAUUCGUACCAUAGAGACCAAUAGCGCUCACCGAGAUCGGAAGAGCACACGU
# B13: target 1 del2,del9 (mixed)
# RNA 1: CACCCGUGCAAAAAUGCAGGGGUCUAAAACUGAGCGGAUAACCUCUCUAUGG
# RNA 2: GGGAAUGGAUCCACAUCUACGAAUUCGUACCAUAGAGAGGUUUCCGCUACCGAGAUCGGAAGAGCACACGU
# B14: target 1 C7U,U10A (mixed)
# RNA 1: CACCCGUGCAAAAAUGCAGGGGUCUAAAACUGAGCGGAUAACCUCUCUAUGG
# RNA 2: GGGAAUGGAUCCACAUCUACGAAUUCGUACCAUAGAGAGGUAAUUCGCUCACCGAGAUCGGAAGAGCACACGU
# B15: target 1 insG 3' of 11,insA 3' of 7 (mixed)
# RNA 1: CACCCGUGCAAAAAUGCAGGGGUCUAAAACUGAGCGGAUAACCUCUCUAUGG
# RNA 2: GGGAAUGGAUCCACAUCUACGAAUUCGUACCAUAGAGAGGUGUAUCACGCUCACCGAGAUCGGAAGAGCACACGU
# B16: target 1 insG 3' of 2,insC 3' of 1 (mixed)
# RNA 1: CACCCGUGCAAAAAUGCAGGGGUCUAAAACUGAGCGGAUAACCUCUCUAUGG
# RNA 2: GGGAAUGGAUCCACAUCUACGAAUUCGUACCAUAGAGAGGUUAUCCGCUCGACCCGAGAUCGGAAGAGCACACGU
# B17: target 1 insA 3' of 17,insG 3' of 11 (mixed)
# RNA 1: CACCCGUGCAAAAAUGCAGGGGUCUAAAACUGAGCGGAUAACCUCUCUAUGG
# RNA 2: GGGAAUGGAUCCACAUCUACGAAUUCGUACCAUAGAAGAGGUGUAUCCGCUCACCGAGAUCGGAAGAGCACACGU
# B18: target 1 insU 3' of 22,insA 3' of 15 (mixed)
# RNA 1: CACCCGUGCAAAAAUGCAGGGGUCUAAAACUGAGCGGAUAACCUCUCUAUGG
# RNA 2: GGGAAUGGAUCCACAUCUACGAAUUCGUACUCAUAGAGAAGGUUAUCCGCUCACCGAGAUCGGAAGAGCACACGU
# B19: target 1 insG 3' of 14,insG 3' of 4 (mixed)
# RNA 1: CACCCGUGCAAAAAUGCAGGGGUCUAAAACUGAGCGGAUAACCUCUCUAUGG
# RNA 2: GGGAAUGGAUCCACAUCUACGAAUUCGUACCAUAGAGAGGGUUAUCCGCGUCACCGAGAUCGGAAGAGCACACGU
# B20: target 1 insG 3' of 20,insG 3' of 7 (mixed)
# RNA 1: CACCCGUGCAAAAAUGCAGGGGUCUAAAACUGAGCGGAUAACCUCUCUAUGG
# RNA 2: GGGAAUGGAUCCACAUCUACGAAUUCGUACCAGUAGAGAGGUUAUCGCGCUCACCGAGAUCGGAAGAGCACACGU
# B21: target 1 insA 3' of 21,insU 3' of 15 (mixed)
# RNA 1: CACCCGUGCAAAAAUGCAGGGGUCUAAAACUGAGCGGAUAACCUCUCUAUGG
# RNA 2: GGGAAUGGAUCCACAUCUACGAAUUCGUACCAAUAGAGUAGGUUAUCCGCUCACCGAGAUCGGAAGAGCACACGU
# B22: target 1 insA 3' of 13,insC 3' of 9 (mixed)
# RNA 1: CACCCGUGCAAAAAUGCAGGGGUCUAAAACUGAGCGGAUAACCUCUCUAUGG
# RNA 2: GGGAAUGGAUCCACAUCUACGAAUUCGUACCAUAGAGAGAGUUACUCCGCUCACCGAGAUCGGAAGAGCACACGU
# B23: target 1 U8A,U11G (mixed)
# RNA 1: CACCCGUGCAAAAAUGCAGGGGUCUAAAACUGAGCGGAUAACCUCUCUAUGG
# RNA 2: GGGAAUGGAUCCACAUCUACGAAUUCGUACCAUAGAGAGGGUAACCGCUCACCGAGAUCGGAAGAGCACACGU
# B24: target 1 U3A,A18C (mixed)
# RNA 1: CACCCGUGCAAAAAUGCAGGGGUCUAAAACUGAGCGGAUAACCUCUCUAUGG
# RNA 2: GGGAAUGGAUCCACAUCUACGAAUUCGUACCAUCGAGAGGUUAUCCGCACACCGAGAUCGGAAGAGCACACGU
# B25: target 1 G13A,A20C (mixed)
# RNA 1: CACCCGUGCAAAAAUGCAGGGGUCUAAAACUGAGCGGAUAACCUCUCUAUGG
# RNA 2: GGGAAUGGAUCCACAUCUACGAAUUCGUACCCUAGAGAAGUUAUCCGCUCACCGAGAUCGGAAGAGCACACGU
# B26: target 1 insA 3' of 21,insG 3' of 8 (mixed)
# RNA 1: CACCCGUGCAAAAAUGCAGGGGUCUAAAACUGAGCGGAUAACCUCUCUAUGG
# RNA 2: GGGAAUGGAUCCACAUCUACGAAUUCGUACCAAUAGAGAGGUUAUGCCGCUCACCGAGAUCGGAAGAGCACACGU
# B27: target 1 C7U,A20U (mixed)
# RNA 1: CACCCGUGCAAAAAUGCAGGGGUCUAAAACUGAGCGGAUAACCUCUCUAUGG
# RNA 2: GGGAAUGGAUCCACAUCUACGAAUUCGUACCUUAGAGAGGUUAUUCGCUCACCGAGAUCGGAAGAGCACACGU
# B28: target 1 U3C,C6A (mixed)
# RNA 1: CACCCGUGCAAAAAUGCAGGGGUCUAAAACUGAGCGGAUAACCUCUCUAUGG
# RNA 2: GGGAAUGGAUCCACAUCUACGAAUUCGUACCAUAGAGAGGUUAUCAGCCCACCGAGAUCGGAAGAGCACACGU
# Molecular target: T1, EsCas13d, nuclease-dead
# Assay: crRNA (strand 1, pre-loaded); Mg2+; 40 mM Tris-HCl pH 7.5, 150 mM NaCl, 6 mM MgCl2, 1 mM DTT, 0.1% Tween-20, 0.2 mg/ml BSA; 25 C; 10 min per concentration, then washed
# Details: tags: His6-TwinStrep-SUMO cleaved; N-terminal SNAP kept (SNAP-Surface 488); label: 3' end held by stalled T7 RNA polymerase
row,Binder,Kd
1,B1,88 ± 15 nM
2,B2,16.8 ± 1.4 nM
3,B3,5.27 ± 0.15 nM
4,B4,38 ± 4 nM
5,B5,30 ± 2.5 nM
6,B6,68 ± 20 nM
7,B7,24.1 ± 1.3 nM
8,B8,31.6 ± 3.2 nM
9,B9,24.2 ± 1.8 nM
10,B10,~70 nM
11,B11,16.9 ± 2.2 nM
12,B12,79 ± 16 nM
13,B13,63 ± 9 nM
14,B14,7.8 ± 0.4 nM
15,B15,21.7 ± 1.8 nM
16,B16,10.4 ± 1.3 nM
17,B17,86 ± 21 nM
18,B18,13.7 ± 3.1 nM
19,B19,7.5 ± 0.8 nM
20,B20,29 ± 5 nM
21,B21,31.6 ± 3.5 nM
22,B22,8 ± 0.4 nM
23,B23,12.7 ± 0.5 nM
24,B24,50 ± 6 nM
25,B25,75 ± 29 nM
26,B26,29.8 ± 2.8 nM
27,B27,41.2 ± 3.4 nM
28,B28,14.2 ± 1.5 nM
